From publication PMC8971466

Test: SEC; SE-HPLC, TSK-gel SuperSW3000; 0.1 M phosphate, 0.1 M potassium sulfate pH 6.7; scFv at 0.1 mg/mL, 25 °C, 0.3 mL/min; monomer and dimer peaks told by molecular weight standards, percentages from peak areas

L1, anti-VEGF scFv derived from bevacizumab with non-repetitive linker
Monomer/dimer ratio (monomer %): 95.7%
